In patent US20080248064A1:
Like-named read-outs stand apart in the source and are kept apart here.

Assays:
[1] = biological target: recombinant DEN-2 virus E-glycoprotein antigen (wild type, from pCB8D2-2J-2-9-1) (dengue virus serotype 2 (carboxy-terminal 20% from JE virus))
[2] = biological target: recombinant DEN-2 virus E-glycoprotein antigen (wild type, from pCB8D2-2J-2-9-1) (dengue virus serotype 2 (carboxy-terminal 20% from JE virus)); experiment: IFA, wild-type plasmid transfected cells

| Substance | mAb reactivity (end point) [1] | mAb reactivity (end point) [2] |
| --- | --- | --- |
| mAb 4G2 (antibody) | > 6 | 3.8 |
| mAb 3H5 (antibody) | > 6 | > 4.4 |
| mAb 4E5 (antibody) | > 2.9 | 2.6 |
